Data: patent publication US20020045192A1 (ST JUDE CHILDREN S RESEARCH HOSPITAL, published 2002)
Where no end group is shown, it is not given here.

Assays:
His-tagged Hdm2 210-304 [1] = molecular target: T1, His-tagged Hdm2 210-304 (human, UniProt Q00987 210-304); assay: SPR, His-tagged Hdm2 210-304 captured by anti-His antibody, peptide injected 10 min, signal minus reference cell [a]
T1 construct: Captured on the C-1 chip by anti-His antibody for the Arf peptide library SPR; Tag placed first here
Procedure: (§1) Reactive sites remaining on the surface were blocked by reaction with ethanolamine. The His-tagged ligand was attached to the antibody by injecting a 5-10 μg/ml solution of the ligand in 10 mM HEPES, 150 mM NaCl, pH 7.4 (HBS-N buffer, Biacore) at a flow rate of 10 μL/min through the flow cell. A reference cell was prepared similarly except that no His-tagged ligand was added. Binding was measured by flowing the non-His-tagged analyte through the reference and ligand-containing flow cells in sequence. Prior to injection of ligands, the chip surfaces were equilibrated in HBS-N buffer. Changes in the SPR response due to solvent differences and the injection process were monitored by injection of HBS-N buffer alone. Regeneration of the chip surface to remove bound analyte and ligand was accomplished by two 100 μL injections of 10 mM glycine, pH 2.0 through both flow cells. Data reported is the difference in SPR signal between the flow cell containing analyte and the reference cell. Duplicate injections were made and the SPR response values reported are the average of these two injections.
(§2) Two libraries of peptides 15 amino acids in length were synthesized based on the sequence of exon 1β of mouse p19^Arf and the entire sequence of human p14^Arf. The sequence for the first peptide in each library corresponded to the first 15 amino acids of the protein sequences. […] This approach yielded two libraries of overlapping peptides spanning mouse p19^Arf residues 1-64 and human p14^Arf residues 1-132. The ability of these peptides to bind Hdm2 fragments was determined using the surface plasmon resonance (SPR) technique with a Biacore 3000 instrument. […] Library peptides were allowed to flow over the Hdm2 surface, or over a control surface lacking an Hdm2 fragment.

[2] = molecular target: T2, Hdm2 210-304 (residues 210-304 of SEQ ID NO:8, His tag cleaved) (human, UniProt Q00987 210-304); assay: CD-based binding assay
T2 construct: Non-His-tagged analyte in SPR; also used in CD, NMR, gel filtration

[3] = molecular target: T3, Hdm2 210-275 (residues 210-275 of SEQ ID NO:8, His tag cleaved) (human, UniProt Q00987 210-275); assay: CD-based binding assay
[4] = molecular target: T4, Hdm2 peptide, residues 275-289 of SEQ ID NO:8 (H2 segment) (human); assay: CD titration, failure to induce structure
T4 construct: also called H2 peptide; one from the H2 segment
T4 peptide: Ac-VYQVTVYQAGESDTD-NH2

His-tagged Hdm2 210-304 [5] = molecular target: T1, His-tagged Hdm2 210-304; assay: SPR, His-tagged Hdm2 210-304 captured by anti-His antibody, peptide injected 10 min, signal minus reference cell [b]
Procedure: as §1, §2

[6] = molecular target: T2, Hdm2 210-304 (residues 210-304 of SEQ …); assay: CD titration, ellipticity at 200 nm
Procedure: (§3) Further, saturable binding is also observed when the Hdm2 fragments were added to an excess of mArfN37.

[7] = molecular target: T3, Hdm2 210-275 (residues 210-275 of SEQ …); assay: CD titration, ellipticity at 200 nm
Procedure: as §3

T3 sequence (Q00987 210-275): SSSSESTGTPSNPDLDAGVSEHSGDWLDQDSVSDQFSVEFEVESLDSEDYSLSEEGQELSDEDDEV
T1 sequence (Q00987 210-304): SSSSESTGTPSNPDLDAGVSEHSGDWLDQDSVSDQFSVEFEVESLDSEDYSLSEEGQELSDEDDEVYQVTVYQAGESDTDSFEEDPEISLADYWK
T2 sequence (Q00987 210-304): as above

Row | Binder | binding result (His-tagged Hdm2 210-304 [1]) | binding result [2] | binding result [3] | binding result [4] | other results
1 | Ac-RRPRTASCALAFVNM-NH2 [mouse p19Arf library peptide, residues 31-45 (contains the NoLS RRPR)] | binds | – | – | – | –
2 | Ac-GPPRVRVFVVHIPRL-NH2 (the peptide tested is the 15-mer 16-30; also called fourth peptide of the human library; human A2 (16-30)) [human p14Arf peptide, residues 16-30 (contains the human A2 motif)] | – | binds | no binding | no binding (tested: 1-10 µM (concentrations used)) | binding result (His-tagged Hdm2 210-304 [5]): binds
3 | Ac-MGRRFLVTVRIQRAG-NH2 (also called mouse p19Arf library peptide, residues 1-15) [1-15 (mouse Arf peptide)] | binds | – | – | – | –
4 | Ac-LVTVRIQRAGRPLQE-NH2 (also called mouse p19Arf library peptide, residues 6-20) [6-20 (mouse Arf peptide)] | binds | – | – | – | –
5 | Ac-RPLQERVFLVKFVRS-NH2 (Same limits as the fourth peptide of the mouse library, so possibly a member of group m12; also called mouse A2) [mouse Arf motif peptide A2 (16-30)] | binds | binds | no binding | no binding (tested: 1-10 µM (concentrations used)) | –
6 | Ac-RVFLVKFVRSRRPRT-NH2 (also called mouse p19Arf library peptide, residues 21-35) [21-35 (mouse Arf peptide)] | binds | – | – | – | –
7 | Ac-KFVRSRRPRTASCAL-NH2 (also called mouse p19Arf library peptide, residues 26-40) [26-40 (mouse Arf peptide)] | binds | – | – | – | –
8 | Ac-IQRAGRPLQERVFLV-NH2 (also called mouse p19Arf library peptide, residues 11-25) [11-25 (mouse Arf peptide)] | no binding | – | – | – | –
9 | Ac-AFVNMLLRLERILRR-NH2 (also called mouse p19Arf library peptide, residues 41-55) [41-55 (mouse Arf peptide)] | no binding | – | – | – | –
10 | MGRRFLVTVRIQRAGRPLQERVFLVKFVRSRRPRTAS (not fully specified, Tag-cleaved form used in CD, NMR and gel filtration; also called 15N-mArfN37) [mArfN37 (N-terminal fragment of mouse p19Arf, residues 1-37, His tag cleaved)] | – | – | – | – | Kd [6]: < 5 µM; Kd [7]: < 5 µM
11 | Ac-MGRRFLVTVRIQRA-NH2 (the peptide tested spans 1-14; also called mouse A1) [mouse Arf motif peptide A1 (1-14)] | – | binds | binds | no binding (tested: 1-10 µM (concentrations used)) | –
12 | Ac-MVRRFLVTLRIRRA-NH2 (the peptide tested spans 1-14; also called human A1) [human Arf motif peptide A1 (1-14)] | – | binds | binds | no binding (tested: 1-10 µM (concentrations used)) | –
